According to patent publication US6410775:
“And” between values parts separate entries of the source, which are not always exact repeats. Equal values may be shown once. Bridge positions count the residues as written; N and C are the ends. Square brackets hold non-standard residues; d marks the D form. Ends that are not written are not given here. αMeP = C[C@@]1(C(=O)O)CCCN1

How the values were obtained:
[1] = target: ACA-6501 aPL antibody; assay: competitive ELISA on plate-bound tetravalent 3B10
[2] = target: ACA-7005 aPL antibody; assay: competitive ELISA on CL/β2-GPI plates, peptide monomer 200 µg/mL, affinity-purified ACA
[3] = target: ACA-6641 aPL antibody; assay: as above
[4] = target: ACA-6626 aPL antibody; assay: as above
[5] = target: ACA-6644 aPL antibody; assay: as above
[6] = target: ACA-6638 aPL antibody; assay: as above
[7] = target: ACA-6501 aPL antibody; assay: as above
[8] = target: ACA-6701 aPL antibody; assay: as above
[9] = target: ACA-7004 aPL antibody; assay: as above
[10] = target: ACA-6903 aPL antibody; assay: as above
[11] = target: nine affinity purified ACA antibodies; assay: competitive ELISA on CL/β2-GPI plates, peptide monomer 200 µg/mL; average of nine ACA
[12] = target: ACA-6701 aPL antibody; assay: fluorescence polarization
[13] = target: nine affinity purified ACA antibodies; assay: competitive ELISA on CL/β2-GPI plates, peptide monomer 1 mg/mL; average of nine ACA
[14] = target: ACA-6701 aPL antibody; assay: competitive fluorescence polarization (cFP), displacement of CB2*-F
[15] = target: ACA-7005 aPL antibody; assay: competitive ELISA on CL/β2-GPI plates, peptide monomer 1 mg/mL, affinity-purified ACA
[16] = target: ACA-6641 aPL antibody; assay: as above
[17] = target: ACA-6626 aPL antibody; assay: as above
[18] = target: ACA-6644 aPL antibody; assay: as above
[19] = target: ACA-6638 aPL antibody; assay: as above
[20] = target: ACA-6501 aPL antibody; assay: as above
[21] = target: ACA-6701 aPL antibody; assay: as above
[22] = target: ACA-7004 aPL antibody; assay: as above
[23] = target: ACA-6903 aPL antibody; assay: as above
[24] = target: ACA-6501 aPL antibody; assay: competitive ELISA on plate-bound tetravalent 3B10, ACA-6501 serum
[25] = target: ACA-6501 aPL antibody; assay: aPL antibody binding of modified 3B10 peptides
[26] = target: ACA-6501 aPL antibody; assay: competitive ELISA I50; antibody not given, ACA-6501 serum on CL/β2-GPI assumed (Ex. 4B)
[27] = target: ACA-7005 aPL antibody; assay: competitive ELISA, peptide at 1.8 mg/mL; members from Table 7
[28] = target: ACA-6641 aPL antibody; assay: as above
[29] = target: ACA-6635 aPL antibody; assay: as above
[30] = target: ACA-6626 aPL antibody; assay: as above
[31] = target: ACA-6644 aPL antibody; assay: as above
[32] = target: ACA-6638 aPL antibody; assay: as above
[33] = target: ACA-6501 aPL antibody; assay: as above
[34] = target: ACA-6701 aPL antibody; assay: as above
[35] = target: ACA-7004 aPL antibody; assay: as above
[36] = target: ACA-6903 aPL antibody; assay: as above
[37] = target: ACA-7005 aPL antibody; assay: competitive ELISA, ACA serum on cardiolipin/β2-GPI-coated plates
[38] = target: ACA-6641 aPL antibody; assay: as above
[39] = target: ACA-6635 aPL antibody; assay: as above
[40] = target: ACA-6626 aPL antibody; assay: as above
[41] = target: ACA-6638 aPL antibody; assay: as above
[42] = target: ACA-6501 aPL antibody; assay: as above
[43] = target: ACA-6701 aPL antibody; assay: as above
[44] = target: ACA-7004 aPL antibody; assay: as above
[45] = target: ACA-6903 aPL antibody; assay: as above
[46] = target: ACA sera [1]-[10] of Table 7; assay: competitive ELISA; mean ± sd over the ten ACA sera
[47] = target: ACA-6644 aPL antibody; assay: competitive ELISA, ACA serum (printed 664) on cardiolipin/β2-GPI-coated plates

PCLLLAPDRCPG [peptide 139 (3B10 lacking the framework Ala-Gly at the amino terminus)]
fold increase of the 50% inhibition concentration against peptide 142 [1]: 8 fold

GILALDYVGG [peptide ACA-6644/CBf …]
percent inhibition [2]: 57%
percent inhibition [3]: 28%
percent inhibition [4]: 37%
percent inhibition [5]: 18%
percent inhibition [6]: 60%
percent inhibition [7]: 37%
percent inhibition [8]: 22%
percent inhibition [9]: 54%
percent inhibition [10]: 43%
percent inhibition (Ave.) [11]: 39%

AGPCLLLAPDRCPG [peptide ACA-6501/3B10 … (monomer)]
fold weaker binding against CB2* [12]: 9 fold
percent inhibition (Ave.) [13]: 65%
Ki [14]: 313 nM
percent inhibition [15]: 47%
percent inhibition [16]: 52%
percent inhibition [17]: 76%
percent inhibition [18]: 55%
percent inhibition [19]: 87%
percent inhibition [20]: 60%
percent inhibition [21]: 51%
percent inhibition [22]: 87%
percent inhibition [23]: 69%

AGPCLLLA[αMeP]DRCPG (cysteine pairing not given here) [peptide 727 (3B10 with αMe-Pro at the 9 position)]
fold increase in activity against native 3B10 [24]: 4 fold
fold enhancement in immunoreactivity against 3B10 [25]: 6 fold

AGPCLGVLGKLCPG [peptide ACA-6641/3G3 … (LJP 688)]
IC50 [26]: 850 µg/mL
percent inhibition [27]: > 80%
percent inhibition [28]: > 80%
percent inhibition [29]: > 80%
percent inhibition [30]: > 80%
percent inhibition [31]: > 80%
percent inhibition [32]: > 80%
percent inhibition [33]: 80%
percent inhibition [34]: > 80%
percent inhibition [35]: > 80%
percent inhibition [36]: > 80%
percent inhibition (Ave.) [13]: 97%
IC50 [37]: 750 µg/mL
IC50 [38]: 890 µg/mL and 510 µg/mL
IC50 [39]: 1000 µg/mL
IC50 [40]: 1090 µg/mL
IC50 [41]: 810 µg/mL
IC50 [42]: 890 µg/mL and 1100 µg/mL
IC50 [43]: 1070 µg/mL
IC50 [44]: 670 µg/mL
IC50 [45]: 800 µg/mL
IC50 [46]: 860 µg/mL
IC50 [47]: 760 µg/mL
percent inhibition [15]: 95%
percent inhibition [16]: 93%
percent inhibition [17]: 100%
percent inhibition [18]: 100%
percent inhibition [19]: 100%
percent inhibition [20]: 86%
percent inhibition [21]: 100%
percent inhibition [22]: 100%
percent inhibition [23]: 100%

AGPLSDPGYVRNIFHPG [peptide ACA-6701/3B1 …]
percent inhibition (Ave.) [13]: 52%
percent inhibition [15]: 23%
percent inhibition [16]: 43%
percent inhibition [17]: 43%
percent inhibition [18]: 37%
percent inhibition [19]: 65%
percent inhibition [20]: 41%
percent inhibition [21]: 96%
percent inhibition [22]: 72%
percent inhibition [23]: 51%

GPCILLARDRCG (disulfide 3-11 (inferred)) [CB2* …]
fold improvement in binding against CB2*-F [12]: 14 fold
Ki [14]: 35 nM
